Experimental data published in patent EP4707393A1, “DOUBLE-STRANDED SIRNA, CONJUGATE THEREOF AND USE THEREOF” (CMS Research & Development Pte. Ltd., priority 2023, dated 2024).

Experiment: Melting temperature (Tm) by UV absorption at 260 nm
Type: physicochemical
Details: phosphate buffer solution; average of at least two independent measurements
Description: The Tm value was determined by recording the change in UV absorption at 260 nm of DNA/RNA in phosphate buffer solution as the temperature increased.
Table 6 Melting temperature (Tm) test instrument parameters
The melting temperature (Tm) was calculated from the first derivative of the smoothed heating curve, and the reported value was the average of at least two independent measurements. Table 7 Melting temperatures (Tm) of conjugates of the present disclosure

## Z54: siRNA conjugate: sense SEQ ID NO:49, ligand D01 at 3' end of sense strand, antisense SEQ ID NO:90 (sense CAGCCCCTTATTGTTATACGA; antisense NCGTATNACAATAAGGGGCNGTT; ligand D01 at sense 3' end; listed as RNA; modified_base 1: mod_base = OTHER; note = 2'-O-methylcytidine; modified_base 2: mod_base = OTHER; note = 2'-O-methyladenosine; modified_base 3: mod_base = OTHER; note = 2'-O-methylguanosine; modified_base 4..7: mod_base = OTHER; note = 2'-O-me; note = n is B33; note = 2'-fluorocytidine; modified_base 4: mod_base = OTHER; note = 2'-O-methyluridine;)
  Melting temperature Tm: 69.00 °C

## Z56: siRNA conjugate: sense SEQ ID NO:43, ligand D01 at 3' end of sense strand, antisense SEQ ID NO:92 (sense CAGCCCCTTATTGTTANACGA; antisense TCTCGTATAACAATAAGGGGCTG; ligand D01 at sense 3' end; listed as RNA; modified_base 1: mod_base = OTHER; note = 2'-O-methylcytidine; modified_base 2: mod_base = OTHER; note = 2'-O-methyladenosine; modified_base 3: mod_base = OTHER; note = 2'-O-methylguanosine; modified_base 4..7: mod_base = OTHER; note = 2'-O-me; note = 2'-O-methyluridine; modified_base 4: mod_base = OTHER; note = 2'-fluorocytidine; modified_base 5: mod_base = OTHER; note = 2'-O-methylg)
  Melting temperature Tm: 77.25 °C
